Our source for the Kd values is patent publication US5262522.

Assay [1] addresses Endogenous high affinity simian LIF receptors on COS-7 cells (simian). Briefly: Scatchard analysis of 125I-LIF binding to COS-7 cells transfected with pHLIFR-65 and CAV, high affinity site (curve B, site 1).
Assay [2] shares this target. Briefly: Scatchard analysis of 125I-LIF binding to non-transfected COS-7 cells (curve E).

As for “Recombinant human leukemia inhibitory factor (LIF) (from UniProt P15018) (ligand)”, the figures for the Kd in assay [1] and in assay [2] were 0.033 nM and 0.03 nM, respectively.
